Measured values from PMC4370742, “Expression, purification, and characterization of galactose oxidase of Fusarium sambucinum in E. coli” (Protein Expression and Purification, 2015).

Legend:
[1] = substrate: CO[C@@H]1O[C@H](CO)[C@H](O)[C@H](O)[C@H]1O; assay: purified protein; assay type: biochemical, Fusarium sambucinum; conditions: O2 at air saturation, 20 mM potassium phosphate pH 7.0, 30 °C, Cu-activated enzyme
[2] = substrate: OC[C@H]1O[C@H](OC[C@H]2O[C@H](O[C@]3(CO)O[C@H](CO)[C@@H](O)[C@@H]3O)[C@H](O)[C@@H](O)[C@@H]2O)[C@H](O)[C@@H](O)[C@H]1O; assay: purified protein; assay type: biochemical, Fusarium sambucinum; conditions: O2 at air saturation, 20 mM potassium phosphate pH 7.0, 30 °C, Cu-activated enzyme

B1: galactose oxidase (GalOx) of Fusarium sambucinum (Fusarium sambucinum) (protein)
chain: ASAPIGSAISRNNWAVTCDSAQPGNECNKAIDGNRDTFWHTFYGANGDPKPPHTYNIDMKTTQNVNGLSMLPRQDGSQNGWIGRHEVYLSSDGKTWGSPVATGSWFADSTTKYSNFETRPARYVRLVALAEANGQPWTSIAEINVYQASSYTAPQPGLGRWGPTIDLPIVPAAAAIEPTSGRVLMWSSYRNDAFGGSPGGVTLTSSWDPSSGIVSDRTVTVTKHDMFCPGISMDGNGQIVVTGGNDAKKTSLYDSPSDSWVPGPDMQVARGYQSSATMSDGRVFTIGGSWSGGIFEKNGEVYSPSSKTWTSLPNAKVNPMLTADKQGLYRSDNHAWLFGWKKGSVFQAGPSTAMNWYYTSGSGDVKSAGKRQSNRGVAPDAMCGNAVMYDAVQGKILTFGGSPDYQDSDATTNAHIITLGEPGSTPKTVFASNGLYFARTFHTSVVLPDGSTFITGGQRRGIPFEDSTPVLTPEIYVPEQDTFYKQNPNSIVRVYHSISLLLPDGRVFNGGGGLCGDCTTNHFDAQIFTPNYLYDSNGNLATRPKITRTSTQSVKVGGRVTISTDYSIRKASLIRYGTATHTVNTDQRRIPLTLMNNGGNSYSFQVPSDTGIALPGYWMLFVINSAGVPSVASTIRVTQ
notes: C-terminal His6 tag kept (pET21a NdeI/NotI); E. coli BL21(DE3); IMAC
Km [1]: 39 ± 1.7 mM
Vmax [1]: 67 µmol/min/mg
kcat [1]: 77 s⁻¹
kcat/Km [1]: 2000 M⁻¹ s⁻¹
Km [2]: 20 ± 2.3 mM
Vmax [2]: 43 µmol/min/mg
kcat [2]: 49 s⁻¹
kcat/Km [2]: 2500 M⁻¹ s⁻¹
